Entries after “also recorded” stand apart in the source; their conditions may differ. Numbered stars: 1 amine (or outer) side, 2 acyl side, 3 side chain; on linkers, the order of the positions; unused ones are H or OH. Square brackets hold non-standard residues; d marks the D form. Side chains are listed from the residue outwards. Peptide text beside a SMILES is read from it. * marks the point of attachment. C20 diacid = O=C(O)CCCCCCCCCCCCCCCCCCC(=O)*; γGlu = O=C(O)[C@H](CCC(=O)[*:2])N[*:1]; AEEA = NCCOCCOCC(=O)O; Aib = CC(C)(N)C(=O)O
How the values were obtained:
[1] = stability of polypeptide in serum (GIP activity read-out with CHOK1-GIPR cells); format: in vitro ADME, cynomolgus monkey; settings: for Activity ratio (%, Relative to the sample at 0 h): 100 μg/ml in cynomolgus monkey serum, GIP activity
Experimental: Polypeptide 1 (SEQ ID NO. 1), polypeptide 3 (SEQ ID NO. 3) and control LY3437943 were diluted to 100 μg/ml with cynomolgus monkey serum, divided into 3 pieces with 200 μl/piece, respectively. One sample was placed in a −80° C. refrigerator as a zero reference, and the other two samples were placed in a 37° C. incubator and moved into a −80° C. refrigerator after 24 hours and 72 hours respectively. […] The activity changes of different samples after being placed for different periods of time were compared.

GIP receptor (human) = molecular target: T1, GIP receptor (human) (UniProt P48546); test: cell-based or functional assay
T1 sequence (looked up): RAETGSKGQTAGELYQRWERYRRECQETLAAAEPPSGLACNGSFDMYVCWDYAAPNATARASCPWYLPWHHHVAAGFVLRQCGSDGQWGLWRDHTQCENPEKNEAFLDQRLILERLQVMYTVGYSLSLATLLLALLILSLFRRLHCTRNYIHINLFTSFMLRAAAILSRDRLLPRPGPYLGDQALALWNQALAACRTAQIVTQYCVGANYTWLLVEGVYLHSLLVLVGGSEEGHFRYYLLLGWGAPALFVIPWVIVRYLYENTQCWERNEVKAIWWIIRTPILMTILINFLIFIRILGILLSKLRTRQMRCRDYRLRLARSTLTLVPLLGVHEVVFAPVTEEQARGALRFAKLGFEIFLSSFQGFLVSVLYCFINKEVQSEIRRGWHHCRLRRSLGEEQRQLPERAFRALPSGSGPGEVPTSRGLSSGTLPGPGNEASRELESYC

[2] = molecular target: human GLP-1 receptor (human) (UniProt P43220); test: cell-based or functional assay
GCG receptor = GCG receptor (UniProt P47871); test: cell-based or functional assay

In the case of `CC[C@H](C)[C@H](NC(=O)[C@H](CCCCNC(=O)COCCOCCNC(=O)CC[C@H](NC(=O)CCCCCCCCCCCCCCCCCCC(=O)O)C(=O)O)NC(=O)[C@H](CC(=O)O)NC(=O)[C@H](CC(C)C)NC(=O)[C@H](CC(C)C)NC(=O)[C@@H](NC(=O)[C@H](CO)NC(=O)[C@H](Cc1ccc(O)cc1)NC(=O)[C@H](CC(=O)O)NC(=O)[C@H](CO)NC(=O)[C@@H](NC(=O)[C@H](Cc1ccccc1)NC(=O)[C@@H](NC(=O)CNC(=O)[C@H](CCC(N)=O)NC(=O)C(C)(C)NC(=O)[C@@H](N)Cc1c[nH]cn1)[C@@H](C)O)[C@@H](C)O)[C@@H](C)CC)C(=O)N[C@@H](C)C(=O)N[C@@H](C)C(=O)N[C@@H](CCC(N)=O)C(=O)N[C@@H](C)C(=O)N[C@@H](Cc1ccccc1)C(=O)N[C@H](C(=O)N[C@@H](CCC(=O)O)C(=O)N[C@@H](Cc1c[nH]c2ccccc12)C(=O)N[C@@H](CC(C)C)C(=O)N[C@H](C(=O)N[C@@H](C)C(=O)NCC(=O)NCC(=O)N1CCC[C@H]1C(=O)N[C@@H](CO)C(=O)N[C@@H](CO)C(=O)NCC(=O)N[C@@H](C)C(=O)N1CCC[C@H]1C(=O)N1CCC[C@H]1C(=O)N1CCC[C@H]1C(=O)N[C@@H](CO)C(N)=O)[C@@H](C)CC)[C@@H](C)CC` [Polypeptide 1] (H-H[Aib]QGTFTSDYSILLDK([AEEA-γGlu-C20 diacid])IAAQAFIEWLIAGGPSSGAPPPS-NH2; N-terminus and C-terminus assumed), the “stability in serum (in words)” value ([1]; cynomolgus monkey serum, 37° C.) is reported as “higher than that of polypeptide 3; also recorded: significantly improve polypeptide stability”, the “Activity ratio (%, Relative to the sample at 0 h)” value ([1]; incubation time at 37° C. 0 h (zero reference)) is reported as 100% and the “Activity ratio (%, Relative to the sample at 0 h)” value ([1]; incubation time at 37° C. 72 h) is reported as 67.13%.

“GIP (from UniProt P09681 52-93) (ligand)” gave an EC50 (nmol/L), reporter gene in CHO-K1 cells (GIP receptor (human)) of 0.059 nmol/L.

With “GLP-1 (from UniProt P01275 92-128) (ligand)” the EC50 (nmol/L), CRE-luciferase reporter in CHO-K1 cells [2] was 1.95 nmol/L.

In the case of LY3437943 (peptide), the Results of activity in human serum albumin system (GIPR) (GIP receptor (human)) is reported as 3.29, the Results of activity in human serum albumin system (GLP-1R) [2] is reported as 540 and the Results of activity in human serum albumin system (GCGR) (GCG receptor) is reported as 26.
